# Reference: the supplement of paper PMC5998384
# Experiments:
# HeLa Kyoto [1] = test: solubility in G1/S (NP-40 vs SDS abundance) (log2 ratio); higher = more soluble; conditions: cell cycle stage: G1/S
# HeLa Kyoto [2] = test: melting temperature (median over replicates), in situ; higher = more thermally stable
# HeLa Kyoto [3] = test: solubility change mitosis vs G1/S (difference of NP-40 vs SDS log2 ratios) (log2 ratio difference); higher = more soluble in mitosis
# 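Wherever melting temperature (median over replicates), in situ is given: HeLa Kyoto cells synchronized by double thymidine or nocodazole block, proteins quantified by TMT10plex mass spectrometry, three independent biological replicates.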
# 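Wherever solubility change mitosis vs G1/S (difference of NP-40 vs SDS log2 ratios) is given: synchronized HeLa Kyoto cells (double thymidine block for G1/S, nocodazole release for mitosis), protein amounts in NP-40 versus SDS lysates quantified by mass spectrometry, three biological replicates.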
# 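Wherever solubility in G1/S (NP-40 vs SDS abundance) is given: HeLa Kyoto cells arrested at G1/S by double thymidine block, proteins quantified by TMT10plex mass spectrometry in mild NP-40 versus SDS extracts, three biological replicates.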
sequence,measurement,setting,value
MASRGKTETSKLKQNLEEQLDRLMQQLQDLEECREELDTDEYEETKKETLEQLSEFNDSLKKIMSGNMTLVDELSGMQLAIQAAISQAFKTPEVIRLFAKKQPGQLRTRLAEMDRDLMVGKLERDLYTQQKVEILTALRKLGEKLTADDEAFLSANAGAILSQFEKVSTDLGSGDKILALASFEVEKTKK [LZIC],solubility in G1/S (log2),HeLa Kyoto [1],0.367
same,melting temperature,HeLa Kyoto [2]; cell cycle stage: G1/S,54.1 °C
same,melting temperature,HeLa Kyoto [2]; cell cycle stage: mitosis,53.2 °C
same,solubility change mitosis (log2),HeLa Kyoto [3],0.544
MATGDLKRSLRNLEQVLRLLNYPEEVDCVGLIKGDPAASLPIISYSFTSYSPYVTELIMESNVELIAKNDLRFIDAVYKLLRDQFNYKPILTKKQFIQCGFAEWKIQIVCDILNCVMKKHKELSSLQKIPSQQRKKISSGKSEPPLGNEKISAEAVGVDISGRFMTSGKKKAVVIRHLYNEDNVDISEDTLSPITDVNEAVDVSDLNATEIKMPEVKVPEIKAEQQDVNVNPEITALQTMLAECQENLKKLTSIEKRLDCLEQKMKGKVMVDENTWTNLLSRVTLLETEMLLSKKNDEFIEFNEVSEDYASCSDMDLLNPHRKSEVERPASIPLSSGYSTASSDSTPRASTVNYCGLNEISEETTIQKMERMKKMFEETAELLKCPNHYL [CEP44],solubility in G1/S (log2),HeLa Kyoto [1],0.259
same,melting temperature,HeLa Kyoto [2]; cell cycle stage: G1/S,48.6 °C
same,melting temperature,HeLa Kyoto [2]; cell cycle stage: mitosis,49.3 °C
same,solubility change mitosis (log2),HeLa Kyoto [3],-0.26
MATKDPTAVERANLLNMAKLSIKGLIESALSFGRTLDSDYPPLQQFFVVMEHCLKHGLKVRKSFLSYNKTIWGPLELVEKLYPEAEEIGASVRDLPGLKTPLGRARAWLRLALMQKKMADYLRCLIIQRDLLSEFYEYHALMMEEEGAVIVGLLVGLNVIDANLCVKGEDLDSQVGVIDFSMYLKNEEDIGNKERNVQIAAILDQKNYVEELNRQLNSTVSSLHSRVDSLEKSNTKLIEELAIAKNNIIKLQEENHQLRSENKLILMKTQQHLEVTKVDVETELQTYKHSRQGLDEMYNEARRQLRDESQLRQDVENELAVQVSMKHEIELAMKLLEKDIHEKQDTLIGLRQQLEEVKAINIEMYQKLQGSEDGLKEKNEIIARLEEKTNKITAAMRQLEQRLQQAEKAQMEAEDEDEKYLQECLSKSDSLQKQISQKEKQLVQLETDLKIEKEWRQTLQEDLQKEKDALSHLRNETQQIISLKKEFLNLQDENQQLKKIYHEQEQALQELGNKLSESKLKIEDIKEANKALQGLVWLKDKEATHCKLCEKEFSLSKRKHHCRNCGEIFCNACSDNELPLPSSPKPVRVCDSCHALLIQRCSSNLP [RUFY2],solubility in G1/S (log2),HeLa Kyoto [1],-0.00835
same,melting temperature,HeLa Kyoto [2]; cell cycle stage: G1/S,49.1 °C
same,melting temperature,HeLa Kyoto [2]; cell cycle stage: mitosis,49.3 °C
same,solubility change mitosis (log2),HeLa Kyoto [3],-0.122
MATLSFVFLLLGAVSWPPASASGQEFWPGQSAADILSGAASRRRYLLYDVNPPEGFNLRRDVYIRIASLLKTLLKTEEWVLVLPPWGRLYHWQSPDIHQVRIPWSEFFDLPSLNKNIPVIEYEQFIAESGGPFIDQVYVLQSYAEGWKEGTWEEKVDERPCIDQLLYSQDKHEYYRGWFWGYEETRGLNVSCLSVQGSASIVAPLLLRNTSARSVMLDRAENLLHDHYGGKEYWDTRRSMVFARHLREVGDEFRSRHLNSTDDADRIPFQEDWMKMKVKLGSALGGPYLGVHLRRKDFIWGHRQDVPSLEGAVRKIRSLMKTHRLDKVFVATDAVRKEYEELKKLLPEMVRFEPTWEELELYKDGGVAIIDQWICAHARFFIGTSVSTFSFRIHEEREILGLDPKTTYNRFCGDQEKACEQPTHWKITY [POFUT2],solubility in G1/S (log2),HeLa Kyoto [1],0.154
same,melting temperature,HeLa Kyoto [2]; cell cycle stage: mitosis,53.8 °C
same,solubility change mitosis (log2),HeLa Kyoto [3],-0.151
MDPGKDKEGVPQPSGPPARKKFVIPLDEDEVPPGVAKPLFRSTQSLPTVDTSAQAAPQTYAEYAISQPLEGAGATCPTGSEPLAGETPNQALKPGAKSNSIIVSPRQRGNPVLKFVRNVPWEFGDVIPDYVLGQSTCALFLSLRYHNLHPDYIHGRLQSLGKNFALRVLLVQVDVKDPQQALKELAKMCILADCTLILAWSPEEAGRYLETYKAYEQKPADLLMEKLEQDFVSRVTECLTTVKSVNKTDSQTLLTTFGSLEQLIAASREDLALCPGLGPQKARRLFDVLHEPFLKVP [ERCC1],solubility in G1/S (log2),HeLa Kyoto [1],0.296
same,melting temperature,HeLa Kyoto [2]; cell cycle stage: mitosis,51 °C
same,solubility change mitosis (log2),HeLa Kyoto [3],0.0087
MDTSSVGGLELTDQTPVLLGSTAMATSLTNVGNSFSGPANPLVSRSNKFQNSSVEDDDDVVFIEPVQPPPPSVPVVADQRTITFTSSKNEELQGNDSKITPSSKELASQKGSVSETIVIDDEEDMETNQGQEKNSSNFIERRPPETKNRTNDVDFSTSSFSRSKVNAGMGNSGITTEPDSEIQIANVTTLETGVSSVNDGQLENTDGRDMNLMITHVTSLQNTNLGDVSNGLQSSNFGVNIQTYTPSLTSQTKTGVGPFNPGRMNVAGDVFQNGESATHHNPDSWISQSASFPRNQKQPGVDSLSPVASLPKQIFQPSVQQQPTKPVKVTCANCKKPLQKGQTAYQRKGSAHLFCSTTCLSSFSHKPAPKKLCVMCKKDITTMKGTIVAQVDSSESFQEFCSTSCLSLYEDKQNPTKGALNKSRCTICGKLTEIRHEVSFKNMTHKLCSDHCFNRYRMANGLIMNCCEQCGEYLPSKGAGNNVLVIDGQQKRFCCQSCVSEYKQVGSHPSFLKEVRDHMQDSFLMQPEKYGKLTTCTGCRTQCRFFDMTQCIGPNGYMEPYCSTACMNSHKTKYAKSQSLGIICHFCKRNSLPQYQATMPDGKLYNFCNSSCVAKFQALSMQSSPNGQFVAPSDIQLKCNYCKNSFCSKPEILEWENKVHQFCSKTCSDDYKKLHCIVTYCEYCQEEKTLHETVNFSGVKRPFCSEGCKLLYKQDFARRLGLRCVTCNYCSQLCKKGATKELDGVVRDFCSEDCCKKFQDWYYKAARCDCCKSQGTLKERVQWRGEMKHFCDQHCLLRFYCQQNEPNMTTQKGPENLHYDQGCQTSRTKMTGSAPPPSPTPNKEMKNKAVLCKPLTMTKATYCKPHMQTKSCQTDDTWRTEYVPVPIPVPVYIPVPMHMYSQNIPVPTTVPVPVPVPVFLPAPLDSSEKIPAAIEELKSKVSSDALDTELLTMTDMMSEDEGKTETTNINSVIIETDIIGSDLLKNSDPETQSSMPDVPYEPDLDIEIDFPRAAEELDMENEFLLPPVFGEEYEEQPRPRSKKKGAKRKAVSGYQSHDDSSDNSECSFPFKYTYGVNAWKHWVKTRQLDEDLLVLDELKSSKSVKLKEDLLSHTTAELNYGLAHFVNEIRRPNGENYAPDSIYYLCLGIQEYLCGSNRKDNIFIDPGYQTFEQELNKILRSWQPSILPDGSIFSRVEEDYLWRIKQLGSHSPVALLNTLFYFNTKYFGLKTVEQHLRLSFGTVFRHWKKNPLTMENKACLRYQVSSLCGTDNEDKITTGKRKHEDDEPVFEQIENTANPSRCPVKMFECYLSKSPQNLNQRMDVFYLQPECSSSTDSPVWYTSTSLDRNTLENMLVRVLLVKDIYDKDNYELDEDTD [ZMYM2],solubility in G1/S (log2),HeLa Kyoto [1],-0.229
same,melting temperature,HeLa Kyoto [2]; cell cycle stage: G1/S,49.3 °C
same,melting temperature,HeLa Kyoto [2]; cell cycle stage: mitosis,49.7 °C
same,solubility change mitosis (log2),HeLa Kyoto [3],0.00298
MDVSGQETDWRSTAFRQKLVSQIEDAMRKAGVAHSKSSKDMESHVFLKAKTRDEYLSLVARLIIHFRDIHNKKSQASVSDPMNALQSLTGGPAAGAAGIGMPPRGPGQSLGGMGSLGAMGQPMSLSGQPPPGTSGMAPHSMAVVSTATPQTQLQLQQVALQQQQQQQQFQQQQQAALQQQQQQQQQQQFQAQQSAMQQQFQAVVQQQQQLQQQQQQQQHLIKLHHQNQQQIQQQQQQLQRIAQLQLQQQQQQQQQQQQQQQQALQAQPPIQQPPMQQPQPPPSQALPQQLQQMHHTQHHQPPPQPQQPPVAQNQPSQLPPQSQTQPLVSQAQALPGQMLYTQPPLKFVRAPMVVQQPPVQPQVQQQQTAVQTAQAAQMVAPGVQMITEALAQGGMHIRARFPPTTAVSAIPSSSIPLGRQPMAQVSQSSLPMLSSPSPGQQVQTPQSMPPPPQPSPQPGQPSSQPNSNVSSGPAPSPSSFLPSPSPQPSQSPVTARTPQNFSVPSPGPLNTPVNPSSVMSPAGSSQAEEQQYLDKLKQLSKYIEPLRRMINKIDKNEDRKKDLSKMKSLLDILTDPSKRCPLKTLQKCEIALEKLKNDMAVPTPPPPPVPPTKQQYLCQPLLDAVLANIRSPVFNHSLYRTFVPAMTAIHGPPITAPVVCTRKRRLEDDERQSIPSVLQGEVARLDPKFLVNLDPSHCSNNGTVHLICKLDDKDLPSVPPLELSVPADYPAQSPLWIDRQWQYDANPFLQSVHRCMTSRLLQLPDKHSVTALLNTWAQSVHQACLSAA [MED15],solubility in G1/S (log2),HeLa Kyoto [1],0.144
same,melting temperature,HeLa Kyoto [2]; cell cycle stage: mitosis,51.3 °C
same,solubility change mitosis (log2),HeLa Kyoto [3],0.147
MEAAVGVPDGGDQGGAGPREDATPMDAYLRKLGLYRKLVAKDGSCLFRAVAEQVLHSQSRHVEVRMACIHYLRENREKFEAFIEGSFEEYLKRLENPQEWVGQVEISALSLMYRKDFIIYREPNVSPSQVTENNFPEKVLLCFSNGNHYDIVYPIKYKESSAMCQSLLYELLYEKVFKTDVSKIVMELDTLEVADEDNSEISDSEDDSCKSKTAAAAADVNGFKPLSGNEQLKNNGNSTSLPLSRKVLKSLNPAVYRNVEYEIWLKSKQAQQKRDYSIAAGLQYEVGDKCQVRLDHNGKFLNADVQGIHSENGPVLVEELGKKHTSKNLKAPPPESWNTVSGKKMKKPSTSGQNFHSDVDYRGPKNPSKPIKAPSALPPRLQHPSGVRQHAFSSHSSGSQSQKFSSEHKNLSRTPSQIIRKPDRERVEDFDHTSRESNYFGLSPEERREKQAIEESRLLYEIQNRDEQAFPALSSSSVNQSASQSSNPCVQRKSSHVGDRKGSRRRMDTEERKDKDSIHGHSQLDKRPEPSTLENITDDKYATVSSPSKSKKLECPSPAEQKPAEHVSLSNPAPLLVSPEVHLTPAVPSLPATVPAWPSEPTTFGPTGVPAPIPVLSVTQTLTTGPDSAVSQAHLTPSPVPVSIQAVNQPLMPLPQTLSLYQDPLYPGFPCNEKGDRAIVPPYSLCQTGEDLPKDKNILRFFFNLGVKAYSCPMWAPHSYLYPLHQAYLAACRMYPKVPVPVYPHNPWFQEAPAAQNESDCTCTDAHFPMQTEASVNGQMPQPEIGPPTFSSPLVIPPSQVSESHGQLSYQADLESETPGQLLHADYEESLSGKNMFPQPSFGPNPFLGPVPIAPPFFPHVWYGYPFQGFIENPVMRQNIVLPSDEKGELDLSLENLDLSKDCGSVSTVDEFPEARGEHVHSLPEASVSSKPDEGRTEQSSQTRKADTALASIPPVAEGKAHPPTQILNRERETVPVELEPKRTIQSLKEKTEKVKDPKTAADVVSPGANSVDSRVQRPKEESSEDENEVSNILRSGRSKQFYNQTYGSRKYKSDWGYSGRGGYQHVRSEESWKGQPSRSRDEGYQYHRNVRGRPFRGDRRRSGMGDGHRGQHT [OTUD4],solubility in G1/S (log2),HeLa Kyoto [1],-0.0234
same,melting temperature,HeLa Kyoto [2]; cell cycle stage: mitosis,51.1 °C
same,solubility change mitosis (log2),HeLa Kyoto [3],0.0663
MEAEETMECLQEFPEHHKMILDRLNEQREQDRFTDITLIVDGHHFKAHKAVLAACSKFFYKFFQEFTQEPLVEIEGVSKMAFRHLIEFTYTAKLMIQGEEEANDVWKAAEFLQMLEAIKALEVRNKENSAPLEENTTGKNEAKKRKIAETSNVITESLPSAESEPVEIEVEIAEGTIEVEDEGIETLEEVASAKQSVKYIQSTGSSDDSALALLADITSKYRQGDRKGQIKEDGCPSDPTSKQVEGIEIVELQLSHVKDLFHCEKCNRSFKLFYHFKEHMKSHSTESFKCEICNKRYLRESAWKQHLNCYHLEEGGVSKKQRTGKKIHVCQYCEKQFDHFGHFKEHLRKHTGEKPFECPNCHERFARNSTLKCHLTACQTGVGAKKGRKKLYECQVCNSVFNSWDQFKDHLVIHTGDKPNHCTLCDLWFMQGNELRRHLSDAHNISERLVTEEVLSVETRVQTEPVTSMTIIEQVGKVHVLPLLQVQVDSAQVTVEQVHPDLLQDSQVHDSHMSELPEQVQVSYLEVGRIQTEEGTEVHVEELHVERVNQMPVEVQTELLEADLDHVTPEIMNQEERESSQADAAEAAREDHEDAEDLETKPTVDSEAEKAENEDRTALPVLE [ZNF131],solubility in G1/S (log2),HeLa Kyoto [1],-0.231
same,melting temperature,HeLa Kyoto [2]; cell cycle stage: G1/S,46.6 °C
same,solubility change mitosis (log2),HeLa Kyoto [3],-0.0242
